PMC6092189 (Nature structural & molecular biology, 2018)
Positions count from the first letter of the chain named. Numbers in names are those of the source.

B1: recombinant human β-cardiac myosin subfragment-1 (short S1, sS1, MYH7 residues 1-808) with C-termina (complex)
chain 1: MGDSEMAVFGAAAPYLRKSEKERLEAQTRPFDLKKDVFVPDDKQEFVKAKIVSREGGKVTAETEYGKTVTVKEDQVMQQNPPKFDKIEDMAMLTFLHEPAVLYNLKDRYGSWMIYTYSGLFCVTVNPYKWLPVYTPEVVAAYRGKKRSEAPPHIFSISDNAYQYMLTDRENQSILITGESGAGKTVNTKRVIQYFAVIAAIGDRSKKDQSPGKGTLEDQIIQANPALEAFGNAKTVRNDNSSRFGKFIRIHFGATGKLASADIETYLLEKSRVIFQLKAERDYHIFYQILSNKKPELLDMLLITNNPYDYAFISQGETTVASIDDAEELMATDNAFDVLGFTSEEKNSMYKLTGAIMHFGNMKFKLKQREEQAEPDGTEEADKSAYLMGLNSADLLKGLCHPRVKVGNEYVTKGQNVQQVIYATGALAKAVYERMFNWMVTRINATLETKQPRQYFIGVLDIAGFEIFDFNSFEQLCINFTNEKLQQFFNHHMFVLEQEEYKKEGIEWTFIDFGMDLQACIDLIEKPMGIMSILEEECMFPKATDMTFKAKLFDNHLGKSANFQKPRNIKGKPEAHFSLIHYAGIVDYNIIGWLQKNKDPLNETVVGLYQKSSLKLLSTLFANYAGADAPIEKGKGKAKKGSSFQTVSALHRENLNKLMTNLRSTHPHFVRCIIPNETKSPGVMDNPLVMHQLRCNGVLEGIRICRKGFPNRILYGDFRQRYRILNPAAIPEGQFIDSRKGAEKLLSSLDIDHNQYKFGHTKVFFKAGLLGLLEEMRDERLSRIITRIQAQSRGVLARMEYKKLLERR
chain 2: not shown
B2: human β-cardiac myosin sS1-eGFP (MYH7 1-808) A223T with essential light chain (complex)
chain 1: B1 chain 1 with A223T
chain 2: not shown
B3: human β-cardiac myosin sS1-eGFP (MYH7 1-808) D239N with essential light chain (complex)
chain 1: B1 chain 1 with D239N
chain 2: not shown
B4: human β-cardiac myosin sS1-eGFP (MYH7 1-808) H251N with essential light chain (complex)
chain 1: B1 chain 1 with H251N
chain 2: not shown
B5: human β-cardiac myosin sS1-eGFP (MYH7 1-808) R237W with essential light chain (complex)
chain 1: B1 chain 1 with R237W
chain 2: not shown
B6: human β-cardiac myosin sS1-eGFP (MYH7 1-808) S532P with essential light chain (complex)
chain 1: B1 chain 1 with S532P
chain 2: not shown

Target: TMR-phalloidin-labelled biotinylated actin filaments (UniProt P68135 1-377, biotin (~1 biotin per monomer))
Test: optical trap, harmonic force spectroscopy

Binder	k0, detachment rate from actin at zero load
B1	102 s⁻¹
B2	104 s⁻¹
B3	140 s⁻¹
B4	152 s⁻¹
B5	155 s⁻¹
B6	80 s⁻¹
